# Results reported in US9688764B2, “Methods of treating breast cancer by administering anti-human prolactin receptor (PRLR) antibodies” (REGENERON PHARMACEUTICALS, INC., priority 2013, dated 2017).
# Where two headings read alike, the source gives them in different places.
# B1: H1H6953N-DM1 (conjugate)
# VH: EVQLLESGGGLVQPGGTLRLSCAASGFTFSAYAMSWVRQAPGKGLEWVSSINVRAGDTYYADSVKGRFTISRDNSKNTLFLLMNSLRAEDTAAYYCAKARYSSNWGFDFWGQGTLVTVSS
# VL: DIVMTQSPDSLTVSLGARTTINCQSSQTILHSSNNHNYLAWYQQKPGLPPKLLIYWSSTRESGVPDRFSGSGSGTDFTLTISSLQAEDVAIYYCQQYSNTPYTFGQGTKLEIN
# B2: H1H6958N2-DM1: anti-PRLR antibody H1H6958N2 conjugated to DM1 through an SMCC linker (conjugate)
# VH: QVQLVESGGGVVQPGRSLRLSCGASGFTFRNYGMQWVRQGPGKGLEWVTLISFDGNDKYYADSVKGRFTISRDNSKNTLFLQMNSLRTEDTAVYYCARGGDFDYWGQGTLVTVSS
# VL: DIQMTQSPSSLSASVGDRVTITCRASQDIRKDLGWYQQKPGKAPKRLIYAASSLHSGVPSRFSGSGSGTEFTLTISSLQPEDFATYYCLQHNSYPMYTFGQGTKLEIK
# What was measured:
# NCI-N87 cells = assay: Cell viability (cell kill) assay; assay type: cell-based; details: Table 17
# Text: (§1) PRLR-overexpressing cells, including HEK293, PC3, MCF7 and NCI-N87, were generated to assess the ability of anti-PRLR conjugated antibodies to reduce cell viability. For comparative purposes, PC3 and T47D cells with overexpressed ErbB2 were also generated, as well as an MCF7 cell line over-expressing both hPRLR and hErbB2. Briefly, Lipofectamine® 2000-mediated transfection methodology was utilized to generate HEK293 cells expressing human PRLR (HEK293/hPRLR) or human ErbB2 (HEK293/hErbB2). Lipofectamine LTX with Plus Reagent was used to generate PC3 cells expressing human PRLR (PC3/hPRLR) or human ErbB2 (PC3/hErbB2). Lentiviral-mediated transduction was utilized to generate MCF7 cells expressing human PRLR (MCF7/hPRLR), NCI-N87 cells expressing human PRLR (NCI-N87/hPRLR), T47D cells over-expressing human ErbB2 (T47D/hErbB2), and MCF7 cells expressing both human PRLR and human ErbB2 (MCF7/hPRLR/hErbB2). All lines were selected for at least two weeks in complete growth media plus appropriate selection reagents. Stably expressing populations were enriched for PRLR expression via FACS using the anti PRLR antibody Control I.
# (§2) Next, the ability of anti-PRLR-DM1 antibody-drug conjugates (i.e., anti-PRLR antibodies conjugated to DM1 via a non-cleavable linker [SMCC]) to reduce cell viability was determined using in vitro cell based assays. Cells were seeded in PDL-coated 96 well plates at 1500 to 10000 cells per well in complete growth media and allowed to grow overnight. For cell viability curves, ADCs or free DM1 (as the methyl disulfide derivative DM1-SMe) were added to the cells at final concentrations ranging from 500 nM to 5 pM and incubated for 3 days. The 293, PC3 and T47D cells were incubated with CCK8 (Dojindo, Rockville, Md.) for the final 1-3 hours and the absorbance at 450 nm (OD450) was determined on a Flexstation3 (Molecular Devices, Sunnyvale, Calif.). MCF7 cells were treated with Hoechst 33342 nuclear stain while being fixed with 4% formaldehyde. Images were acquired on the ImageXpress micro XL (Molecular Devices, Sunnyvale, Calif.) and nuclear counts were determined via Columbus image analysis software (Perkin Elmer, Shelton, Conn.). Background OD450 values (PC3, 293, and T47D) or nuclear counts (MCF7) from digitonin (40 nM) treated cells was subtracted from all wells and viability was expressed as a percentage of the untreated controls. IC50 values were determined from a four-parameter logistic equation over a 10-point response curve (GraphPad Prism).
# The potency of anti-PRLR conjugated antibodies compared with a similarly conjugated antibody to the co-expressed ErbB2 cell surface target was also assessed. […]
# PC3 cells = assay: Cell viability (cell kill) assay; assay type: cell-based
# Outline: (§3)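 PC3 and PC3/hPRLR (lipofection-generated, FACS-enriched for PRLR) cells exposed 3 days to anti-PRLR ADCs or free DM1-SMe, 500 nM to 5 pM. Viability by CCK8 OD450, digitonin background subtracted, as % of untreated; IC50 from four-parameter fit of 10-point curves.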
# MCF7/hPRLR/hErbB2 cells = assay: Cell viability (cell kill) assay; assay type: cell-based, human; details: MCF/PRLR + ErbB2; Table 17
# Text: as §1, §2
# (§4) The potency of anti-PRLR conjugated antibodies compared with a similarly conjugated antibody to the co-expressed ErbB2 cell surface target was also assessed. Both PRLR and ErbB2 are expressed in a majority of breast cancers, and anti-ErbB2 antibodies conjugated to DM1 have shown clinical efficacy in targeting ErbB2 (+) breast cancer (Hurvitz et al; 2013).
# T47D/hErbB2 cells = assay: Cell viability (cell kill) assay; assay type: cell-based, human; details: T47D/ErbB2; Table 16
# Text: as §1, §2, §4
# PC3/hErbB2 cells = assay: Cell viability (cell kill) assay; assay type: cell-based, human; details: PC3/ErbB2; Table 15
# Text: as §1, §2, §4
# NCI-N87/hPRLR cells = assay: Cell viability (cell kill) assay; assay type: cell-based, human; details: NCI-N87/PRLR; Table 17
# Text: as §1, §2, §4
# MCF7 (MCF7/ATCC) cells = assay: Cell viability (cell kill) assay, nuclear counts; assay type: cell-based
# Outline: (§5)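 Anti-PRLR ADCs or free DM1-SMe were added at 500 nM to 5 pM final to cells seeded overnight and were incubated 3 days. MCF7 lines were fixed with 4% formaldehyde plus Hoechst 33342, and nuclei were counted by imaging, with digitonin […] background subtracted. Viability was expressed as % of untreated cells, and IC50 was obtained from a 4-parameter fit of a 10-point curve.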
# [1] = tested on: MCF7/hPRLR (MCF7/PRLR) cells; assay: Cell viability (cell kill) assay, nuclear counts; assay type: cell-based, human
# Outline: as §5
# HEK293 (293) cells = assay: Cell viability (cell kill) assay; assay type: cell-based
# Outline: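 Anti-PRLR–DM1 ADCs (non-cleavable SMCC linker) or free DM1-SMe, 500 nM to 5 pM for 3 days on parental or hPRLR-overexpressing lines. HEK293: CCK8 OD450; MCF7: Hoechst nuclear counts by imaging.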
# [2] = tested on: HEK293/hPRLR (293/hPRLR) cells; assay: Cell viability (cell kill) assay; assay type: cell-based, human; details: 3 days
# Text: as §1, §2
# PC3/hPRLR cells = assay: Cell viability (cell kill) assay; assay type: cell-based, human
# Outline: as §3
# [3] = 293/PRLR, Table 11, read-out: IC50
molecule,measurement,setting,value
B1,% Kill,NCI-N87 cells,83%
same,IC50,NCI-N87 cells,90 nM
same,% Kill,PC3 cells; Table 15,80%
same,IC50,PC3 cells; Table 15,100 nM
same,IC50,MCF7/hPRLR/hErbB2 cells,0.33 nM
same,% Kill,T47D/hErbB2 cells,80%
same,IC50,T47D/hErbB2 cells,2.4 nM
same,IC50,PC3/hErbB2 cells,80 nM
same,IC50,NCI-N87/hPRLR cells,2.9 nM
same,% Kill,"MCF7 (MCF7/ATCC) cells; MCF7, Table 12, 3 days",55%
same,IC50,"MCF7 (MCF7/ATCC) cells; MCF7, Table 12, 3 days",100 nM
same,IC50,"MCF7 (MCF7/ATCC) cells; MCF7, Table 16",82 nM
same,% Kill,"[1]; Table 12, 3 days",76%
same,IC50,"[1]; Table 12, 3 days",0.29 nM
same,% Kill,[1]; Table 17,76%
same,IC50,[1]; Table 17,0.33 nM
same,IC50,"HEK293 (293) cells; 293, Table 11, 3 days",100 nM
same,IC50,"HEK293 (293) cells; 293, Table 14",100 nM
same,% Kill,"[2]; 293/PRLR, Table 11",95%
same,IC50,[2]; [3],0.28 nM
same,IC50,"[2]; 293/hPRLR cells (PRLR 18× above background), read-out: IC50, cell viability",0.43 nM
same,% Kill,"PC3/hPRLR cells; PC3/PRLR, Table 11, 3 days",67%
same,IC50,"PC3/hPRLR cells; PC3/PRLR, Table 11, 3 days",0.86 nM
same,% Kill,"PC3/hPRLR cells; PC3/PRLR, Table 15",76%
same,IC50,"PC3/hPRLR cells; PC3/PRLR, Table 15",0.68 nM
B2,% Kill,"PC3 cells; Table 11, 3 days",83%
same,IC50,"PC3 cells; Table 11, 3 days",150 nM
same,% Kill,"MCF7 (MCF7/ATCC) cells; MCF7/ATCC, Table 18",72%
same,IC50,"MCF7 (MCF7/ATCC) cells; MCF7/ATCC, Table 18",90 nM
same,% Kill,"MCF7 (MCF7/ATCC) cells; MCF7/ATCC, Table 20",70%
same,IC50,"MCF7 (MCF7/ATCC) cells; MCF7/ATCC, Table 20",70 nM
same,% Kill,"MCF7 (MCF7/ATCC) cells; MCF7, Table 12, 3 days",77%
same,IC50,"MCF7 (MCF7/ATCC) cells; MCF7, Table 12, 3 days",100 nM
same,% Kill,"[1]; Table 12, 3 days",77%
same,IC50,"[1]; Table 12, 3 days",0.19 nM
same,% Kill,[1]; Table 18,83%
same,IC50,[1]; Table 18,0.2 nM
same,% Kill,[1]; Table 20,80%
same,IC50,[1]; Table 20,0.2 nM
same,% Kill,"HEK293 (293) cells; 293, Table 19",90%
same,IC50,"HEK293 (293) cells; 293, Table 19",100 nM
same,% Kill,"HEK293 (293) cells; HEK293, Table 13, without PRL",88%
same,IC50,"HEK293 (293) cells; HEK293, Table 13, without PRL",90 nM
same,% Kill,"[2]; 293/PRLR, Table 11",95%
same,IC50,[2]; [3],0.1 nM
same,% Kill,"PC3/hPRLR cells; PC3/PRLR, Table 11, 3 days",83%
same,IC50,"PC3/hPRLR cells; PC3/PRLR, Table 11, 3 days",0.43 nM
same,% Kill,"PC3/hPRLR cells; PC3/hPRLR, Table 18",79%
same,IC50,"PC3/hPRLR cells; PC3/hPRLR, Table 18",0.5 nM
